Assays:
[1] = molecular target: dGAE aggregates (Homo sapiens, UniProt P10636); assay: Sandwich ELISA on SDS/Triton X-100 treated dGAE aggregates; type: binding; details: S1D12 mAb capture, S1G2 scAb detection; SDS + Triton X-100
Protocol: We have noticed Sodium dodecyl sulphate (SDS) can break apart dGA/dGAE aggregates and separate them into smaller fragments by performing an SDS-PAGE. This has been replicated and tested using an ELISA as described below.
For aggregation, 1000 μL 100 μM dGAE+10 μL 10 mM DTT was added to a ‘LoBind’ microfuge tubes and agitated at 700 RPM/37° C. for 24 hours. Resulting sample centrifuged at 17,000×g/4° C. for 60 min and supernatant discarded to remove left over monomer. Pellet resuspended in half the original volume for future experiments and hereafter referred to as ‘aggregates’. 1 μl of aggregates was added to 1 ml of PBS and SDS was added to a final concentration of 1% (w/v). This was left to incubate on lab bench for 1 h with gentle agitation every 15 minutes. In order to neutralize the SDS effect on ELISA, Triton X-100 added to a final concentration of 3% (v/v) and mixed gently by pipetting to prevent any bubble formation. 200 μl added of this mix was to the first well of an ELISA plate coated with 1 μg/ml S1D12 mAb and blocked with 2% MPBS. Similarly aggregates treated with only SDS or Triton X-100, untreated aggregates, dGAE monomers treated with only SDS or SDS+Titon X-100 were also added to designated wells as controls. All samples were then double diluted across the plate in final volumes of 100 μl. The final column was left with no protein to act as a blank. This was allowed to stand at room temperature for 1 hour followed by the addition of detection scAb-S1G2 at 10 μg/ml. Anti-HuCk HRP labelled secondary antibody was added as described previously and ELISA data generated was represented using the graph below.

[2] = test system: core tau in plasma of wildtype, Line 1 and Line 66 mice; assay: S1D12 mAb 6-week repeat-dose mouse study; plasma tau by CA4-S1G2 Simoa; type: in vivo; details: for plasma tau (CA4-S1G2 Simoa): 30 mg/kg i.p. once per week, six weeks
Protocol: A total of 12 wildtype, 12 Line 1 and 12 Line 66 female mice were used in this study-Line 1 and Line 66 are transgenic mouse models of tauopathy ( Melis et al., 2015). Animals were 2 months old at the beginning of the study. Mice of each genotype were injected intraperitoneally (i.p.) with either vehicle or S1D12 mAb (30 mg/kg), once per week, for six consecutive weeks.
Seven days post final dose, cardiac puncture blood sampling was performed. mice were anaesthetised using an overdose of sodium pentobarbital (i.p.) and blood was collected via cardiac puncture through a Plastipak syringe pre-rinsed with heparinised saline (10 U/mL) and transferred into a plastic vial containing lithium heparin anticoagulant. Blood samples were centrifuged to obtain plasma at 2,000×g for 5 min at 6° C.
A three-step assay was performed and analysed by following the previously described plasma screening methods using CA4 antibody capture beads, S1G2 detector (10 ng/ml) and the plasma samples added in 1:8 dilution.

[3] = molecular target: dGAE (SEQ ID NO: 4) (Homo sapiens, UniProt P10636); assay: Biacore X100 SPR kinetics of scAbs for dGAE; type: binding; details: Table 24, scAb, dGAE analyte; for Kd: dissociation rate
Protocol: Surface plasmon resonance (SPR) is widely regarded as the gold standard for real time measurement of protein-protein interactions such as antibody binding. All SPR experiments were carried out using a Biacore X100 machine and HBS EP+ running buffer (GE Healthcare). A ‘capture’ method was followed for affinity measurements, where an anti-human constant kappa chain (HuCk) antibody was conjugated to the surface of a CM5 sensor chip using an amine coupling kit and scAb molecules were immobilised via their HuCk domain. Amine coupling is a very common approach for immobilising the ligand to the chip surface. The chip surface has a dextran matrix derivatised with carboxyl groups, which after activation with N-hydroxysuccinimide (NHS) and 1-ethyl-3-(3-dimethylaminopropyl) carbodiimide (EDC), form reactive succinimide esters which allows the covalent capturing of the ligand via any available primary amine groups (e.g. Lysine) on the ligand (in this case anti-HuCk antibody). The capture antibody was diluted 1/100 in 10 mM Sodium acetate buffer pH 5.0 and passed over the activated chip surface for a period of at least 420 s. Final ligand immobilisation levels over 12,000 RU were deemed to be satisfactory.
Following immobilisation, the level of each scAb to be captured was identified using the standard SPR equation with a theoretical RMax of 100 RU. Analyte MW refers to the molecular weight of hT40 or dGA/dGAE molecules, while ligand MW refers to the molecular weight of the scAbs tested. RL is the desired capture level and S refers to the stoichiometric ratio:
The scAb to be tested was added only to flow cell 2 so that flow cell 1 could act as a control to subtract any interaction with the analyte and the chip surface. Both single and multi-cycle runs were utilised using wizards developed in the Biacore X100 control software which are both accepted methods of kinetic analysis (Karlsson, R., et al. Analyzing a kinetic titration series using affinity biosensors (2006) Analytical Biochemistry 349:136-47). The multi-cycle protocol was as follows-Three start-up cycles composed of an initial capture, to the desired level, of the scAb to be tested was performed followed by a 30 s injection of glycine buffer pH 2.0 after each cycle to regenerate the chip surface. The regeneration step removed any captured scAb whilst leaving the capture antibody intact and able to repeat the capture for the next cycle. […]
The single cycle kinetics protocol was similar and utilised the same level of scAb capture. […] Binding responses were analysed in Biacore X100 evaluation software and data fitted to a 1:1 binding model to obtain kinetic and affinity characterisation.

[4] = test system: hT40, dGA, dGAE and truncated tau fragments; assay: Binding ELISA / epitope mapping of anti-tau scAbs with truncated tau proteins and 13mer peptides; design: species or system human; details: for cross-reactivity using hT40, dGA and dGAE antigens: ELISA, 'E' group scAbs; for Tau proteins/fragments with positive scAb reactivity: Table 15, binding ELISA, residue numbers of hT40
In short: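 Plates coated with 1 μg/ml tau protein, or 5 μg/ml streptavidin then 1 μg/ml biotinylated 13mer peptide; blocked with 2% MPBS. scAbs added at a starting concentration and double-diluted. Bound scAb detected with HRP anti-human C kappa and read as absorbance.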

[5] = test system: 13 aa tau peptides of hT40; assay: Alanine scanning mutagenesis (ASM) peptide ELISA; type: binding, human; details: alanine substituted peptides; numbering SEQ ID NO: 1
Protocol: Briefly, 5 μg/ml streptavidin (Thermo Fisher) was adsorbed to Nunc 96-well MaxiSorp plates and following incubation at 37° C. for 1 h, the plates were washed as normal and blocked with 2% MPBS. N-terminally biotinylated peptides (Prolmmune Ltd) were added to the plates and incubated for 1 h at 37° C. Subsequently, test scAbs at starting concentrations of 100-500 nM was added and double diluted across the plate for each peptide and incubated for 1 h at 37° C. Rest of the ELISA was conducted as described above and the plates were read at absorbance 450 nm. Immunoreactivity of the scAb of interest was quantified as the % of scAb was bound for each peptide at a chosen concentration (FIG. 15-20).

[6] = molecular target: T1, hT40 (T441, SEQ ID NO: 1) (Homo sapiens, UniProt P10636); assay: Biacore X100 SPR kinetics of scAbs for hT40; type: binding; details: scAb format
T1 construct: Full length tau (hT40)
In short: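 Captured scAb on anti-HuCk CM5 surface (flow cell 1 as reference) in HBS-EP+, capture set for theoretical RMax 100 RU; hT40 injected multi-cycle (0.15625–100 nM) or single-cycle (6.25–100 nM), 120 s association, 420 s dissociation, glycine pH 2.0 regeneration. Kinetics and affinity from 1:1 binding model fit.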

Chain of dGAE (SEQ ID NO: 4) (P10636 614-708): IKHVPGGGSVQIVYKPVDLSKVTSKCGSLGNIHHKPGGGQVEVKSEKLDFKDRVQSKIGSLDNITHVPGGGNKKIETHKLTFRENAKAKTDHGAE
T1 sequence (P10636 1-441 isoform P10636-8): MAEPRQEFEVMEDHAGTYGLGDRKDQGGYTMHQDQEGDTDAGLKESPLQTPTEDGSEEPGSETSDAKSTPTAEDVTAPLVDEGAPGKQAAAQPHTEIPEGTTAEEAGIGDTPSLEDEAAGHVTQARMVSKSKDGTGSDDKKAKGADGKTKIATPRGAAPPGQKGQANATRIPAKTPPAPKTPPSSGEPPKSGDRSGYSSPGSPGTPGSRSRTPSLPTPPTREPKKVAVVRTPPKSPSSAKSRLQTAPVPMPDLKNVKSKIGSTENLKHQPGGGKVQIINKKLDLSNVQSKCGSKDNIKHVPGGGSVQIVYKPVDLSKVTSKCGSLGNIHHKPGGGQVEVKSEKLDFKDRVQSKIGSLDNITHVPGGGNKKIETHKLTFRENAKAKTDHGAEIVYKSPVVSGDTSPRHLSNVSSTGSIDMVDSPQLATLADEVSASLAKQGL
Chain of dGAE aggregates (P10636 614-708): as the sequence (P10636 614-708) above

| Molecule | dGAE aggregates detectable [1] | increase of core tau in plasma vs vehicle ([2]; L1 mice) | plasma tau (CA4-S1G2 Simoa) ([2]; L1 mice) [ng/mL] | plasma tau (CA4-S1G2 Simoa) ([2]; L66+/+ mice, mean (SEM)) | increase of core tau in plasma vs vehicle ([2]; L66 mice) | increase of core tau in plasma vs vehicle ([2]; wild-type mice) | plasma tau (CA4-S1G2 Simoa) ([2]; wildtype mice, mean (SEM)) | ka [3] [M⁻¹ s⁻¹] | Kd [3] [s⁻¹] | cross-reactivity using hT40, dGA and dGAE antigens [4] | Tau proteins/fragments with positive scAb reactivity [4] | critical binding residues [5] | T441 binding in SPR (result in words) ([6]; Table 23) | hT40 binding (result in words) ([6]; Table 26 summary) | Epitope ([4]; Table 26 summary, top scAbs, residues of hT40) | Detection scAb (Epitope) ([4]; Table 28 (LoD table), residues of hT40) |
| --- | --- | --- | --- | --- | --- | --- | --- | --- | --- | --- | --- | --- | --- | --- | --- | --- |
| S1D12 mAb: S1D12 reformatted; heavy chain SEQ ID NO: 445, light chain 446 (antibody, S1D12 mAB Heavy Chain; S1D12 mAB Light Chain) heavy: QVQLQESGPSLVKPSQTLSLTCTVSGFSLNNNAVGWVRQAPGKVPESLVGCSSDGTCYYNSALKSRLDITRDTSKNQISLSLSSVTTDDAAVYYCTRGHYSIYGYDYLGTIDYWGPGLLVTVSSAKTTAPSVYPLAPVCGDTTGSSVTLGCLVKGYFPEPVTLTWNSGSLSSGVHTFPAVLQSDLYTLSSSVTVTSSTWPSQSITCNVAHPASSTKVDKKIEPRGPTIKPCPPCKCPAPNLLGGPSVFIFPPKIKDVLMISLSPIVTCVVVDVSEDDPDVQISWFVNNVEVHTAQTQTHREDYNSTLRVVSALPIQHQDWMSGKEFKCKVNNKDLPAPIERTISKPKGSVRAPQVYVLPPPEEEMTKKQVTLTCMVTDFMPEDIYVEWTNNGKTELNYKNTEPVLDSDGSYFMYSKLRVEKKNWVERNSYSCSVVHEGLHNHHTTKSFSRTPGK light: QAVLTQPSSVSGSLGQRVSITCSGSSSNVGGGNSVGWYQHLPGSGLKTIIYDTNSRPSGVPDRFSGSRSGNTATLTINSLQAEDEGDYYCVTGDSTTHDDLVGSGTRLTVLGGQPKSSPSVTLFPPSSEELETNKATLVCTITDFYPGVVTVDWKVDGTPVTQGMETTQPSKQSNNKYMASSYLTLTARAWERHSSYSCQVTHEGHTVEKSLSRADCS | approximately 2 ng/ml | more than 100 fold | > 100 | 3.52 (0.20) ng/ml | more than a threefold increase | less than a two-fold increase | 3.57 (0.22) ng/ml | – | – | – | – | – | – | – | – | – |
| E1E8: dGAE (391E) specific clone, Table 9; SEQ ID NO: 250 (protein, E1E8 amino acid sequence) scFv: QVQLQESGPSLVKPSQTLSLTCTVSGFSLTDWGVAWVRQAPGKALEWLGTMRSGGTTDDNPALKSRLSITRDTSKSQVSLSLSSVTTEDMAMYYCARGYLSGVHYAWGRGLLVTVSSEGKSSGASGESKVDDQAVLTQPSSVSGSLGQSVSITCSGSSSNVGDGRYVSWFQQVPGSAPKLLIYDTTSRASGVPDRFSGSRSGNTATLIITSLQAEDEADYYCASIDSGNNLLFGSGTRLTVLG | – | – | – | – | – | – | – | 153500 | 0.0014 | specific dGAE binding | 297-391 (dGAE) | – | – | – | – | – |
| E2E8: dGAE (391E) specific clone, Table 9; SEQ ID NO: 248 (protein, E2E8 amino acid sequence) scFv: QVQLQESGPSLVKPSQTLSLTCTVSGFSLTDRGVAWVRQAPGKALEWVGTMRSGGTIDYNPALKSRLSITRDTSKSQVFLSLSSVTTEDMAMYYCARGYLSGDRYAWGRGLLVTVSSEGKSSGASGESKVDDQAVLTQPSSVSKSLGQSVSIACSGSRSDIGYGNYVSWFQQIPGSAPKLLIYDTNTRASGVPDRFSGARSGNTATLTINSLQAEDEADYYCANIDSSRSHLFGSGTRLTVLG | – | – | – | – | – | – | – | 477000 | 0.0001915 | specific dGAE binding | 297-391 (dGAE) | 391 (E) | No T441 binding | No hT40 binding | 391 | E2E8 (E dependant) |

Reference: patent US20250355001A1, “METHOD FOR DETECTING A TAU PROTEIN FRAGMENT IN A SAMPLE” (GTINVENT LIMITED, priority 2022, published 2025)
